# The DeepSol protein solubility set
# Assay: soluble on expression in E. coli; label from the status in PepcDB or PDB records
row,Sequence,soluble on expression in E. coli
1,MPFTLGQRWISDTESELGLGTVVAVDARTVTLLFPSTGENRLYARSDSPVTRVMFNPGDTITSHDGWQMQVEEVKEENGLLTYIGTRLDTEESGVALREVFLDSKLVFSKPQDRLFAGQIDRMDRFALRYRARKYSSEQFRMPYSGLRGQRTSLIPHQLNIAHDVGRRHAPRVLLADEVGLGKTIEAGMILHQQLLSGAAERVLIIVPETLQHQWLVEMLRRFNLRFALFDDERYAEAQHDAYNPFDTEQLVICSLDFARRSKQRLEHLCEAEWDLLVVDEAHHLVWSEDAPSREYQAIEQLAEHVPGVLLLTATPEQLGMESHFARLRLLDPNRFHDFAQFVEEQKNYRPVADAVAMLLAGNKLSNDELNMLGEMIGEQDIEPLLQAANSDSEDAQSARQELVSMLMDRHGTSRVLFRNTRNGVKGFPKRELHTIKLPLPTQYQTAIKVSGIMGARKSAEDRARDMLYPERIYQEFEGDNATWWNFDPRVEWLMGYLTSHRSQKVLVICAKAATALQLEQVLREREGILAAVFHEGMSIIERDRAAAWFAEEDTGAQVLLCSEIGSEGRNFQFASHMVMFDLPFNPDLLEQRIGRLDRIGQAHDIQIHVPYLEKTAQSVLVRWYHEGLDAFEHTCPTGRTIYDSVYNDLINYLASPDQTEGFDDLIKSCREQHEALKAQLEQGRDRLLEIHSNGGEKAQALAESIEEQDDDTNLIAFAMNLFDIIGINQDDRGDNMIVLTPSDHMLVPDFPGLSEDGITITFDREVALAREDAQFITWEHPLIRNGLDLILSGDTGSSTISLLKNKALPVGTLLVELIYVVEAQAPKQLQLNRFLPPTPVRMLLDKNGNNLAAQVEFETFNRQLNAVNRHTGSKLVNAVQQDVHAILQLGEAQIEKSARALIDAARNEADEKLSAELSRLEALRAVNPNIRDDELTAIESNRQQVMESLDQAGWRLDALRLIVVTHQ,not soluble
2,MPGAVDFKERISRQRPHDRETYGHAGNTDLQDIVYQLESDRGRIVNSAAVRRLQQKTQVFPLERNAAVRSRLTHSLEVQQTGRFIVRTLFRQLGPRAAEVGLDGLEGALESLVEMACLMHDVGNPPFGHFGEYAINDWFERNLDALFERRIPPGQGDGLLQQRMLTDLKHFEGNAQAIRLVVKLLRLNLTYTQTAGLLKYVRPAYEPKPDKAAANHYLNKKPGFYLSEEAFVDELRRVLGMRPGTRHPVAYIMEAADDISYCLADIEDSVEKGILDIRQLADLLVKKFAVHHSPDAPIPGDADNMSFQRMVDYSLEKAEREPINKVSEFFIRLRVKMIHPLVQHAAQQFIDNFEAVHAGTLGRALMEDGSLPHAIVQTFKDVAMEWVFCHPEVETLELQGYRIIQGLLDFYAPLLRLPAEEFQALAEGRQAAAPHPQLLVRRLPSQQIKAYLEAMKGVAEDPLQRQWEFYHRCRMLQDFVSGMTDQHAQDEYRALSAL,not soluble
3,MPGIRGPSEYSQEPPRHPSLKVNAKEPFNAEPPRSALVSSYVTPVDLFYKRNHGPIPIVDHLQSYSVTLTGLIQNPRKLFIKDIRSLPKYNVTATLQCAGNRRTAMSKVRNVRGVGWDVSAIGNAVWGGAKLADVLELVGIPKLTASTNLGARHVEFVSVDRCKEENGGPYKASITLSQATNPEADVLLAYEMNGETLNRDHGFPLRVVVPGVIGARSVKWLDSINVIAEESQGFFMQKDYKMFPPSVNWDNINWSSRRPQMDFPVQSAICSVEDVQMVKPGKVSIKGYAVSGGGRGIERVDISLDGGKNWVEASRTQEPGKQYISEHSSSDKWAWVLFEATIDVSQTTEVIAKAVDSAANVQPENVESVWNLRGVLNTSWHRVLLRLGHSNL,soluble
4,MPHNPIRVVVGPANYFSHPGSFNHLHDFFTDEQLSRAVWIYGKRAIAAAQTKLPPAFGLPGAKHILFRGHCSESDVQQLAAESGDDRSVVIGVGGGALLDTAKALARRLGLPFVAVPTIAATCAAWTPLSVWYNDAGQALHYEIFDDANFMVLVEPEIILNAPQQYLLAGIGDTLAKWYEAVVLAPQPETLPLTVRLGINNAQAIRDVLLNSSEQALSDQQNQQLTQSFCDVVDAIIAGGGMVGGLGDRFTRVAAAHAVHNGLTVLPQTEKFLHGTKVAYGILVQSALLGQDDVLAQLTGAYQRFHLPTTLAELEVDINNQAEIDKVIAHTLRPVESIHYLPVTLTPDTLRAAFKKVESFKA,soluble
5,MPHNSVKHSTRLDVIPLKTAEKHPNSQRRFHVMSKPGGSKCNLDCQYCFYLHKDELLHQPKQPMMDDTTLEAFIKSYIESQDGHEIVFSWQGGEPTLLGLDYFKKIVQLQNKYRPSGVKIENDLQTNGILLNDEWCQFLKDNGFLVGLSIDGPKELHDKYRVTRSGKPTFNLVMAAAKRLQEHHVPFNSLVVVNRHNAKHPLDVYRFLTKELGATYIQFTPCVEAKDFTTTAPQFWNETMIPNKGSELAKPGHPMSIVTDWSVDPDDWGNFLNTVFVEWVNNDLGRVLVNLFETAVAQVMGKESQLCVTAEFCGKGLAMEHNGDVFSCDHYVYPEYKLGNIHDRGLNEFAFSIRQHGFGMAKRDSLPSYCKSCPHLKLCWGECPKNRLINTPNGEPGLNYLCSGIRAFFDESLPMLTGLSVLLQRQENTQK,not soluble
6,MPHTNGKGGGAQKWAGNNKRKRNFDGEQDPSVRKALKEKRLLKKRKQDLKGQEETMLDEVEQKYQEMLKKSSRTFLRFEDFPLSWRTLEGLKDNDYTKPTEIQRDTIAYSLTGSDVVGAAKTGSGKTLALVIPVLEALWRAKWSPDYGLGALIISPTRELALQTFSTINAVGAHHGFSCGLVIGGSDVAFERNRISGINIIVCTPGRLLQHMDENAQMSCDSLQVLVLDEADRMLDMGFSKQLNSIINNLPAERQTLLFSATQTRNVKDLCRVCTNDPVFVSVHENASAATPDNLKQSYVIVEEEHKINALWSFIEAHRKKKSLVFVSSCKQARFLTEAFSQLRPGLPVMGLWGTMNQKKRIETFTKFDESKAAVLIATDVASRGLDFEHIDWVIQVDCPAQIDDYIHRVGRSARMDDSGNSLLMVSPSQEEAMIGKLEKHSIPIEELKIHPDAMSDVRVKLRAILAESQELKEYAQKSIVAYLRSIYTMKDKKVFDVEAIDAAALADSFGLVSVPRVRFLNKKAKKSGEKLMEKEVKEEEEEASLVGKFAIDEDDEDIFTVKKPTGEPEQIKEEEAAEKISNITISKTKPLKKAVTKVSAAKKILNKKLKVNTKKTFGAEDDELEELEEGPSTITSYGLDIEKARQEIKSGDKEDRKRFKLLREQRRQEKLAKKNRRAEEEEAVEYDEDGSEDEPDISWLPDPDAVRRKYEEEPDEVEDLEQQALAALGRK,not soluble
7,MPIATVCTWPAETEGGSTVVAADHASNYARKLGIQRDQLIQEWGWDEDTDDDIRAAIEEACGGELLDEDTDEVIDVVLLWWRDGDGDLVDTLMDAIGPLAEDGVIWVVTPKTGQPGHVLPAEIAEAAPTAGLMPTSSVNLGNWSASRLVQPKSRAGKR,soluble
8,MPIRAMEKATAGKLLTRAEALSLLTEGDLLALGRLADAVRRRMHPENLVTFVVDRNVNYTNVCESKCKFCAFYRDEAAPDAYLLAEEAIFAKIAELVEHGGTQLLMQGGLHPQLGIDWFEDLFRGIKARFPQVQNHSLSPAEITQIATVSKLTIPETVRRLREAGLDSIPGGGAEILVDSVRQEISPRKIGWEGWAAVMSEAARQGMATTATMMFGSRETPEDIVEHLFRVRELQAAGGSFTAFIPWTYQPGNTELGGTGATGVEYLKVLALSRIVLDNIPSIQASWVTQGAAMAQVSLFFGANDLGGTMLEENVVAAAGCTFRMSREEMVELIREAGFRAAQRTTLYSIIREY,not soluble
9,MPITIGNGFLKSEILTNSPRNTKEAWWKVLWEKIKDFFFSTGKAKADRCLHEMLFAERAPTRERLTEIFFELKELACASQRDRFQVHNPHENDATIILRIMDQNEENELLRITQNTDTFSCEVMGNLYFLMKDRPDILKSHPQMTAMIKRRYSEIVDYPLPSTLCLNPAGAPILSVPLDNIEGYLYTELRKGHLDGWKAQEKATYLAAKIQSGIEKTTRILHHANISESTQQNAFLETMAMCGLKQLEIPPPHTHIPIEKMVKEVLLADKTFQAFLVTDPSTSQSMLAEIVEAISDQVFHAIFRIDPQAIQKMAEEQLTTLHVRSEQQSGCLCCFLLEHHHHHH,soluble
10,MPKHIIDEIESLSLATGFILKNGDFTEEKSLLVKPTMGGTWHWSPIKGLHSQDSIRKTRAYILQEIARMTIYPEAGVSPTLRRKKGIVIGVARAVSTELYHIVENDLIEEEMDTAKLAVGYDGETIVIKNDVDSKWKEELSKPLNLSETENKVIQRLLLISHGVIPLQGYSLVTTSHHYNDKSKRAFSAVERQFFSRCDQLSWWKEDEEALRDAMWHKAGHPVKISFKKEIACSITIKQSLANAGIGSVACRLPATEDVVWKAEAYRNLLKTLSPIFDDEVKWEALDEMLSYLNHFSAARPTEVVTVHNAPTHLMSLDTREKVVTWIAQWCSQNAEKVAICLGFHTALLENAGKFPGPSYSLMVLRTNVDSYILGTKLFSDYTVFKAKLRQLMDSVS,soluble
11,MPKKILFTGGGTVGHVTLNLILIPKFIKDGWEVHYIGDKNGIEHTEIEKSGLDVTFHAIATGKLRRYFSWQNLADVFKVALGLLQSLFIVAKLRPQALFSKGGFVSVPPVVAAKLLGKPVFIHESDRSMGLANKIAYKFATTMYTTFEQEDQLSKVKHLGAVTKVFKDANQMPESTQLEAVKEYFSRDLKTLLFIGGSAGAHVFN,not soluble
12,MPKMIMVNKKASESQVMELEKRNYNNPVVLCGFAGSTPTGVLAASYIVETLGMHQVAHLISQHIPPVAVFVGGKLRHPFRIYANNSNTVLVAMCEVPISSAHIYEISNTLMNWIDQVGASEIVIMEGSPANGIPEERPVFAVAEKPKLDKFKKAGIQPADSAIIAGMGGGILNECLVRKITGLSFITPTSVDIPDPGAVLSIIEAINKAYNLKIKTDLLEEQVKALDEQIKKIEEQYKELQEKQKEPQSMYG,soluble
13,MPKNTKKSQGNKKLEMTNKQFDDLLKEMGGLPEGMNLDPELLAVLRQATNAEFNKVAKEKYGDVPEGSDDDEEQQTSEQNKEQQQSSSSKST,not soluble
14,MPKRNDIKTILVIGSGPIIIGQAAEFDYAGTQACLALKEEGYRVILVNSNPATIMTDKEIADKVYIEPLTHDFIARIIRKEQPDALLPTLGGQTGLNMAIQLHESGVLQDNNVQLLGTELTSIQQAEDREMFRTLMNDLNVPVPESDIVNTVEQAFKFKEQVGYPLIVRPAFTMGGTGGGICHNDEELHEIVSNGLHYSPATQCLLEKSIAGFKEIEYEVMRDKNDNAIVVCNMENIDPVGIHTGDSIVVAPSQTLSDVEYQMLRDVSLKVIRALGIEGGCNVQLALDPHSFDYYIIEVNPRVSRSSALASKATGYPIAKLAAKIAVGLTLDEMLNPITGTSYAAFEPTLDYVISKIPRFPFDKFEKGERELGTQMKATGEVMAIGRTYEESLLKAIRSLEYGVHHLGLPNGESFDLDYIKERISHQDDERLFFIGEAIRRGTTLEEIHNMTQIDYFFLHKFQNIIDIEHQLKEHQGDLEYLKYAKDYGFSDKTIAHRFNMTEEEVYQLRMENDIKPVYKMVDTCAAEFESSTPYYYGTYETENESIVTDKEKILVLGSGPIRIGQGVEFDYATVHAVWAIQKAGYEAIIVNNNPETVSTDFSISDKLYFEPLTEEDVMNIINLEKPKGVVVQFGGQTAINLADKLAKHGVKILGTSLENLNRAEDRKEFEALLRKINVPQPQGKTATSPEEALANAAEIGYPVVVRPSYVLGGRAMEIVDNDKELENYMTQAVKASPEHPVLVDRYLTGKEIEVDAICDGETVIIPGIMEHIERAGVHSGDSIAVYPPQTLTEDELATLEDYTIKLAKGLNIIGLINIQFVIAHDGVYVLEVNPRSSRTVPFLSKITDIPMAQLAMRAIIGEKLTDMGYQEGVQPYAEGVFVKAPVFSFNKLKNVDITLGPEMKSTGEVMGKDTTLEKALFKGLTGSGVEVKDHGTVLMTVSDKDKEEVVKLAQRLNEVGYKILATSGTANKLAEYDIPAEVVGKIGGENDLLTRIQNGDVQIVINTMTKGKEVERDGFQIRRTTVENGIPCLTSLDTANALTNVIESMTFTMRQM,not soluble
